The source of these data is patent US20060018902A1 (published 2006).

Residue numbers refer to the chain shown, from its start.

T1: human erythropoietin receptor (EpoR) on human erythroleukemic cells (human, UniProt P19235 25-508)
T1 sequence (looked up): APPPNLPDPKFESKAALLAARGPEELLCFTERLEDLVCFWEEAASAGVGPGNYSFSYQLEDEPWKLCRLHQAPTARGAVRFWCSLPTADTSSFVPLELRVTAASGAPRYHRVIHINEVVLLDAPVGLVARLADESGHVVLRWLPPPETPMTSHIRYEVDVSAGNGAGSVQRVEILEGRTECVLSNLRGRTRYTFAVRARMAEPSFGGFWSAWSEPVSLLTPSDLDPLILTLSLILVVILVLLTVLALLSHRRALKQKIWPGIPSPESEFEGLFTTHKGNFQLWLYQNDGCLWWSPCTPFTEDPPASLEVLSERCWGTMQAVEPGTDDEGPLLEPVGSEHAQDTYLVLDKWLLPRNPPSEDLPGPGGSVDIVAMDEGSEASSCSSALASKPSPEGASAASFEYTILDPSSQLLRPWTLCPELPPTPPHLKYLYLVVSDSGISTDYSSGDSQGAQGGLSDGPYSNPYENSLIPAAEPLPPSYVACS

T2: soluble EpoR (EposR) (human, UniProt P19235 25-250, limits assumed)
T2 construct: also called soluble recombinant human EpoR
T2 sequence (looked up): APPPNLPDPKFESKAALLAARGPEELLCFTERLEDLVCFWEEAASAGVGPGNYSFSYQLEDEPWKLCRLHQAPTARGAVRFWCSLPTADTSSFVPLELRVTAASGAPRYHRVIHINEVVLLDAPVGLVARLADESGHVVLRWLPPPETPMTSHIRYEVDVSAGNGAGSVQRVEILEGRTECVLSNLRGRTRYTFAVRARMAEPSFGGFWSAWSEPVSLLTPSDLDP

T3: soluble EpoR (EposR) (human, UniProt P19235 25-250)
T3 chain: T2 sequence (looked up)

B1: Ab12 IgG2/K (antibody, V domains shown)
VH: QVQLQESGPGLVKPSETLSLTCTVSGASISSYYWSWIRQPPGKGLEWIGYIYYSGSTNYNPSLKSRVTISVDTSKNQFSLKLRSVTAADTAVYYCARERLGIGDYWGQGTLVTVSS
VL: DIQLTQSPSSLSASVGDRVTITCRASQGIRNDLGWYQQKPGKAPKRLIYAASSLQSGVPSRFSGSGSGTEFTLTISSLQPEDFATYYCLQHNTYPPTFGQGTKVEIK
notes: Human IgG2/kappa
B2: Ab12.6 (antibody, V domains shown)
VH: B1 VH with Y52G, Y53G, S54E
VL: B1 VL
notes: CDRH2 Y Y S is changed to G G E against Ab12; also called H2-1-3 R2 #6
B3: Ab12.120 (antibody, IgG2, V domains shown)
VH: B1 VH with S54E
VL: B1 VL
B4: Ab12.122 (antibody, IgG2, V domains shown)
VH: B1 VH with Y53G, S54E
VL: B1 VL
B5: Ab12.121 (antibody, IgG2, V domains shown)
VH: B1 VH with Y52G, Y53G
VL: B1 VL
B6: Ab12.56 (antibody, V domains shown)
VH: B1 VH with Y52A, Y53G, S54T
VL: B1 VL
notes: CDRH2 Y Y S is changed to A G T against Ab12
B7: Ab12.118 (antibody, IgG2, V domains shown)
VH: B1 VH with Y52G
VL: B1 VL
B8: Ab12.119 (antibody, IgG2, V domains shown)
VH: B1 VH with Y53G
VL: B1 VL
B9: Ab12.123 (antibody, IgG2, V domains shown)
VH: B1 VH with Y52G, S54E
VL: B1 VL
B10: Ab12.70 (antibody, V domains shown)
VH: B1 VH with Y53S, S54P, G55S
VL: B1 VL
notes: also called H2-4-1 R2 #8,9
B11: Ab12 scFv construct with Gly/Ser linker (WT) in both the tether and scFv linker positions, displayed on yeast (scFv)
scFv: GGGGSGGGGSGGGGSQVQLQESGPGLVKPSETLSLTCTVSGASISSYYWSWIRQPPGKGLEWIGYIYYSGSTNYNPSLKSRVTISVDTSKNQFSLKLRSVTAADTAVYYCARERLGIGDYWGQGTLVTVSSGGGGSGGGGSGGGGSDIQLTQSPSSLSASVGDRVTITCRASQGIRNDLGWYQQKPGKAPKRLIYAASSLQSGVPSRFSGSGSGTEFTLTISSLQPEDFATYYCLQHNTYPPTFGQGTKVEIK
B12: Ab12 41/40 scFv (linker 41 as tether, linker 40 as scFv linker), displayed on yeast (scFv)
scFv: GENKVEYAPALMALSQVQLQESGPGLVKPSETLSLTCTVSGASISSYYWSWIRQPPGKGLEWIGYIYYSGSTNYNPSLKSRVTISVDTSKNQFSLKLRSVTAADTAVYYCARERLGIGDYWGQGTLVTVSSGPAKELTPLKEAKVSDIQLTQSPSSLSASVGDRVTITCRASQGIRNDLGWYQQKPGKAPKRLIYAASSLQSGVPSRFSGSGSGTEFTLTISSLQPEDFATYYCLQHNTYPPTFGQGTKVEIK
B13: Ab12 scFv construct with linker 41 in the tether position and linker 34 in the scFv linker position, displayed on yeast (scFv)
scFv: GENKVEYAPALMALSQVQLQESGPGLVKPSETLSLTCTVSGASISSYYWSWIRQPPGKGLEWIGYIYYSGSTNYNPSLKSRVTISVDTSKNQFSLKLRSVTAADTAVYYCARERLGIGDYWGQGTLVTVSSGHEAAAVMQVQYPASDIQLTQSPSSLSASVGDRVTITCRASQGIRNDLGWYQQKPGKAPKRLIYAASSLQSGVPSRFSGSGSGTEFTLTISSLQPEDFATYYCLQHNTYPPTFGQGTKVEIK
B14: Ab12 scFv construct with linker 41 in the tether position and the Gly/Ser linker (WT) in the scFv linker position, displayed on yeast (scFv)
scFv: GENKVEYAPALMALSQVQLQESGPGLVKPSETLSLTCTVSGASISSYYWSWIRQPPGKGLEWIGYIYYSGSTNYNPSLKSRVTISVDTSKNQFSLKLRSVTAADTAVYYCARERLGIGDYWGQGTLVTVSSGGGGSGGGGSGGGGSDIQLTQSPSSLSASVGDRVTITCRASQGIRNDLGWYQQKPGKAPKRLIYAASSLQSGVPSRFSGSGSGTEFTLTISSLQPEDFATYYCLQHNTYPPTFGQGTKVEIK

The term Kd denotes the equilibrium constant for the complex coming apart. Read a low Kd as higher affinity. For orientation: koff means the first-order rate constant of dissociation. The low end stands for a long-lived complex, the high end for a short-lived complex. As a reminder, the kon is the rate constant with which the complex forms.

One test concerns the target T1, human erythropoietin receptor (EpoR) on …. In words: cell-based or functional assay.
In the case of B1, the “EC50 (cell proliferation)” value worked out at 1.29 nM and the “Emax (cell proliferation, absorbance)” value was 1.98 absorbance (OD 490 nm).
For B2, the “EC50 (cell proliferation)” value was 0.58 nM and the “Emax (cell proliferation, absorbance)” value is 2.81 absorbance (OD 490 nm).
B3: the “EC50 (cell proliferation)” value came to 0.34 nM and the “Emax (cell proliferation, absorbance)” value was 2 absorbance (OD 490 nm).
In the same order, the values of B4 are 0.42 nM and 2.4 absorbance (OD 490 nm).
Take B5: the “EC50 (cell proliferation)” value was 0.465 nM and the “Emax (cell proliferation, absorbance)” value is 2.3 absorbance (OD 490 nm).
As for B6, the “EC50 (cell proliferation)” value stood at 1.17 nM and the “Emax (cell proliferation, absorbance)” value was 2.51 absorbance (OD 490 nm).
B7: the “EC50 (cell proliferation)” value was 1.13 nM and the “Emax (cell proliferation, absorbance)” value was 2.65 absorbance (OD 490 nm).
Consider B8, for which the “EC50 (cell proliferation)” value amounted to 1.34 nM and the “Emax (cell proliferation, absorbance)” value is 2.53 absorbance (OD 490 nm).
In the same order, the values of B9 are 0.91 nM and 2.7 absorbance (OD 490 nm).

The target in a further test is T2, soluble EpoR (EposR). In words: SPR (BIAcore), IgG2/K antibody, EposR as test antigen. As for the experimental part:
(§1) BIAcore analyses were performed on a BIAcore 2000 utilizing the BIAcontrol software version 3.1.0 and on a BIAcore 3000 utilizing the BIAcontrol software version 4.0.1. (BIAcore, Uppsala, Sweden) using EposR as the test antigen.
Turning to B1, the Kd came to 11 nM, the koff was 0.0013 s⁻¹ and the kon worked out at 140000 M⁻¹ s⁻¹.
B2: the Kd worked out at 32 nM, the koff is 0.0048 s⁻¹ and the kon is 150000 M⁻¹ s⁻¹.
On to B10, for which the Kd stood at 6 nM, the koff was found to be 0.00099 s⁻¹ and the kon turned out to be 160000 M⁻¹ s⁻¹.
In turn, B6 displayed a Kd of 20 nM, a koff of 0.0019 s⁻¹ and a kon of 94000 M⁻¹ s⁻¹.

For the next test, the target named is T3, soluble EpoR (EposR). Briefly: yeast display flow cytometry. In general terms: A flow cytometer gives signals particle by particle.
As for B11, the Kd was 9 nM.
Molecule B12 yielded a Kd of 4 nM. Against the preceding molecule, the Kd is about 2.2-fold lower.
The same measure, in the same setting: under B13 stands 8.5 nM.
In turn, B14 displayed a Kd of 5 nM.

For another test, the target named is T2, soluble EpoR (EposR). In words: SPR (BIAcore), IgG2/K sub-variant of Ab12.6, EposR as test antigen. The method, then: as §1
Sub-variants also were subjected to BIAcore analyses as described above.
On to B3, for which the Kd was found to be 7 nM, the koff amounted to 0.002 s⁻¹ and the kon worked out at 270000 M⁻¹ s⁻¹.
In turn, B4 came in with a Kd of 23 nM, a koff of 0.0049 s⁻¹ and a kon of 220000 M⁻¹ s⁻¹.
The molecule B5 returned a Kd of 31 nM, a koff of 0.0063 s⁻¹ and a kon of 210000 M⁻¹ s⁻¹.
In the same order, the values of B7 are 22 nM, 0.0055 s⁻¹ and 250000 M⁻¹ s⁻¹.
Consider B8, for which the Kd worked out at 21 nM, the koff was 0.0044 s⁻¹ and the kon was determined as 210000 M⁻¹ s⁻¹.
In the same order, the values of B9 are 25 nM, 0.0033 s⁻¹ and 130000 M⁻¹ s⁻¹.
